Patent publication WO2011147762A2

What was measured:
[1] = target: ED-B fibronectin antigen protein (recombinant), bound to CNBr activated sepharose 4B (UniProt P02751); test: ED-B sepharose column, % of total radioactivity bound; Study A; inositol 25 mg/mL; day 5
[2] = target: ED-B fibronectin antigen protein (recombinant), bound to CNBr activated sepharose 4B (UniProt P02751); test: ED-B sepharose column, % of total radioactivity bound; Study A; maltose 10 mg/mL; day 7
[3] = target: ED-B fibronectin antigen protein (recombinant), bound to CNBr activated sepharose 4B (UniProt P02751); test: ED-B sepharose column, % of total radioactivity bound; Study A; inositol 50 mg/mL; day 1
[4] = target: ED-B fibronectin antigen protein (recombinant), bound to CNBr activated sepharose 4B (UniProt P02751); test: ED-B sepharose column, % of total radioactivity bound; Study B3; ascorbic acid 25 mg/mL; day 7
[5] = target: ED-B fibronectin antigen protein (recombinant), bound to CNBr activated sepharose 4B (UniProt P02751); test: ED-B sepharose column, % of total radioactivity bound; Study A; sodium thiosulfate 25 mg/mL; day 0
[6] = target: ED-B fibronectin antigen protein (recombinant), bound to CNBr activated sepharose 4B (UniProt P02751); test: ED-B sepharose column, % of total radioactivity bound; Study B3; human serum albumin 10 mg/mL; day 0
[7] = target: ED-B fibronectin antigen protein (recombinant), bound to CNBr activated sepharose 4B (UniProt P02751); test: ED-B sepharose column, % of total radioactivity bound; Study B3; inositol 10 mg/mL; day 0
[8] = target: ED-B fibronectin antigen protein (recombinant), bound to CNBr activated sepharose 4B (UniProt P02751); test: ED-B sepharose column, % of total radioactivity bound; Study A; sodium thiosulfate 50 mg/mL; day 1
[9] = target: ED-B fibronectin antigen protein (recombinant), bound to CNBr activated sepharose 4B (UniProt P02751); test: ED-B sepharose column, % of total radioactivity bound; Study A; maltose 10 mg/mL; day 5
[10] = target: ED-B fibronectin antigen protein (recombinant), bound to CNBr activated sepharose 4B (UniProt P02751); test: ED-B sepharose column, % of total radioactivity bound; Study B3; no-excipient control (PBS); day 2
[11] = target: ED-B fibronectin antigen protein (recombinant), bound to CNBr activated sepharose 4B (UniProt P02751); test: ED-B sepharose column, % of total radioactivity bound; Study A; inositol 10 mg/mL; day 7
[12] = target: ED-B fibronectin antigen protein (recombinant), bound to CNBr activated sepharose 4B (UniProt P02751); test: ED-B sepharose column, % of total radioactivity bound; Study B3; inositol 10 mg/mL; day 2
[13] = target: ED-B fibronectin antigen protein (recombinant), bound to CNBr activated sepharose 4B (UniProt P02751); test: ED-B sepharose column, % of total radioactivity bound; Study A; sodium thiosulfate 10 mg/mL; day 0
[14] = target: ED-B fibronectin antigen protein (recombinant), bound to CNBr activated sepharose 4B (UniProt P02751); test: ED-B sepharose column, % of total radioactivity bound; Study A; sodium thiosulfate 10 mg/mL; day 7
[15] = target: ED-B fibronectin antigen protein (recombinant), bound to CNBr activated sepharose 4B (UniProt P02751); test: ED-B sepharose column, % of total radioactivity bound; Study A; methionine 5 mg/mL; day 3
[16] = target: ED-B fibronectin antigen protein (recombinant), bound to CNBr activated sepharose 4B (UniProt P02751); test: ED-B sepharose column, % of total radioactivity bound; Study B3; human serum albumin 10 mg/mL; day 7
[17] = target: ED-B fibronectin antigen protein (recombinant), bound to CNBr activated sepharose 4B (UniProt P02751); test: ED-B sepharose column, % of total radioactivity bound; Study A; inositol 5 mg/mL; day 0
[18] = target: ED-B fibronectin antigen protein (recombinant), bound to CNBr activated sepharose 4B (UniProt P02751); test: ED-B sepharose column, % of total radioactivity bound; Study A; no-excipient control (saline); day 0
[19] = target: ED-B fibronectin antigen protein (recombinant), bound to CNBr activated sepharose 4B (UniProt P02751); test: ED-B sepharose column, % of total radioactivity bound; Study A; maltose 5 mg/mL; day 3
[20] = target: ED-B fibronectin antigen protein (recombinant), bound to CNBr activated sepharose 4B (UniProt P02751); test: ED-B sepharose column, % of total radioactivity bound; Study B3; inositol 10 mg/mL; day 1
[21] = target: ED-B fibronectin antigen protein (recombinant), bound to CNBr activated sepharose 4B (UniProt P02751); test: ED-B sepharose column, % of total radioactivity bound; Study A; maltose 5 mg/mL; day 7
[22] = target: ED-B fibronectin antigen protein (recombinant), bound to CNBr activated sepharose 4B (UniProt P02751); test: ED-B sepharose column, % of total radioactivity bound; Study A; methionine 5 mg/mL; day 5
[23] = target: ED-B fibronectin antigen protein (recombinant), bound to CNBr activated sepharose 4B (UniProt P02751); test: ED-B sepharose column, % of total radioactivity bound; Study A; inositol 5 mg/mL; day 5
[24] = target: ED-B fibronectin antigen protein (recombinant), bound to CNBr activated sepharose 4B (UniProt P02751); test: ED-B sepharose column, % of total radioactivity bound; Study A; inositol 5 mg/mL; day 1
[25] = target: ED-B fibronectin antigen protein (recombinant), bound to CNBr activated sepharose 4B (UniProt P02751); test: ED-B sepharose column, % of total radioactivity bound; Study A; maltose 5 mg/mL; day 1
[26] = target: ED-B fibronectin antigen protein (recombinant), bound to CNBr activated sepharose 4B (UniProt P02751); test: ED-B sepharose column, % of total radioactivity bound; Study A; sodium thiosulfate 10 mg/mL; day 3
[27] = target: ED-B fibronectin antigen protein (recombinant), bound to CNBr activated sepharose 4B (UniProt P02751); test: ED-B sepharose column, % of total radioactivity bound; Study A; inositol 10 mg/mL; day 0
[28] = target: ED-B fibronectin antigen protein (recombinant), bound to CNBr activated sepharose 4B (UniProt P02751); test: ED-B sepharose column, % of total radioactivity bound; Study A; sodium thiosulfate 5 mg/mL; day 3

Chain of 131I L19-SIP (radioiodinated L19 SIP homodimer) (chain): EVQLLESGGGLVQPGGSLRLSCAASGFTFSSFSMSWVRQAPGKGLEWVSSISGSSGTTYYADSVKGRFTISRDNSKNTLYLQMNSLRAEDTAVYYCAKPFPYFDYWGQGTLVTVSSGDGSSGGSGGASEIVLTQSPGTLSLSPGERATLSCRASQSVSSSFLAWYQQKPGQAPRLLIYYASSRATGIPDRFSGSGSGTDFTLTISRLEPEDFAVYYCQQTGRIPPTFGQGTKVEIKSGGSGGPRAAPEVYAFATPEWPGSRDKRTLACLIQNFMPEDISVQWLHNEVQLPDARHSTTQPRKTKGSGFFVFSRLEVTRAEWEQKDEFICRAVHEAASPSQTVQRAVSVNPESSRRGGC
Chain of 131I L19-SIP (radioiodinated L19 SIP homodimer) (chain): as above
Chain of UniProt P02751 (P02751 1266-1356 limits assumed): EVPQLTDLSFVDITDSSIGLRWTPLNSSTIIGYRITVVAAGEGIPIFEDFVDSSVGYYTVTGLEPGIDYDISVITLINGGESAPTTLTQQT

Immunoreactivity (%) [1]: 59.9% | Immunoreactivity (%) [2]: 53.7% | Immunoreactivity (%) [3]: 89.3% | Immunoreactivity (IR) (%) [4]: 55.3% | Immunoreactivity (%) [5]: 96.4% | Immunoreactivity (IR) (%) [6]: 76.3% | Immunoreactivity (IR) (%) [7]: 59.5% | Immunoreactivity (%) [8]: 96.9% | Immunoreactivity (%) [9]: 57.2% | Immunoreactivity (IR) (%) [10]: 71.3% | Immunoreactivity (%) [11]: 60.7% | Immunoreactivity (IR) (%) [12]: 68.8% | Immunoreactivity (%) [13]: 96.2% | Immunoreactivity (%) [14]: 78% | Immunoreactivity (%) [15]: 72.9% | Immunoreactivity (IR) (%) [16]: 39.8% | Immunoreactivity (%) [17]: 94.8% | Immunoreactivity (%) [18]: 94.3% | Immunoreactivity (%) [19]: 66.3% | Immunoreactivity (IR) (%) [20]: 77.1% | Immunoreactivity (%) [21]: 50% | Immunoreactivity (%) [22]: 62.6% | Immunoreactivity (%) [23]: 56.2% | Immunoreactivity (%) [24]: 87.1% | Immunoreactivity (%) [25]: 84.4% | Immunoreactivity (%) [26]: 88.5% | Immunoreactivity (%) [27]: 93.4% | Immunoreactivity (%) [28]: 83.5%
Substance: 131I L19-SIP (radioiodinated L19 SIP homodimer)
